{"source": "paper PMC9202514", "proteins": {"B1": {"name": "ZmITPK1 (Zea mays) (protein)", "chain": "MASDAAAEPSSGVTHPPRYVIGYALAPKKQQSFIQPSLVAQAASRGMDLVPVDASQPLAEQGPFHLLIHKLYGDDWRAQLVAFAARHPAVPIVDPPHAIDRLHNRISMLQVVSELDHAADQDSTFGIPSQVVVYDAAALADFGLLAALRFPLIAKPLVADGTAKSHKMSLVYHREGLGKLRPPLVLQEFVNHGGVIFKVYVVGGHVTCVKRRSLPDVSPEDDASAQGSVSFSQVSNLPTERTAEEYYGEKSLEDAVVPPAAFINQIAGGLRRALGLQLFNFDMIRDVRAGDRYLVIDINYFPGYAKMPGYETVLTDFFWEMVHKDGVGNQQEEKGANHVVVK"}}, "substrate": "Nc1ncnc2c1ncn2[C@@H]1O[C@H](COP(=O)(O)OP(=O)(O)OP(=O)(O)O)[C@@H](O)[C@H]1O", "assay": "DIPP1-coupled Pi-release malachite green assay", "type": "biochemical, Zea mays", "settings": "25 μM InsP6, 3.5 mM MgCl2, 100 mM KCl, pH 7.2, 25 °C", "data": [{"protein": "B1", "values": [{"measurement": "Km", "result": 364, "unit": "µM"}]}]}
